The record followed here is the supplement of paper PMC5998384.

Series [1] deals with HeLa Kyoto. Briefly: thermal stability score vs G1/S (z-score of summed log2 fold changes over temperatures); higher = more thermally stable than in G1/S.
The subject of series [2] is HeLa Kyoto. Put plainly: solubility change mitosis vs G1/S (difference of NP-40 vs SDS log2 ratios) (log2 ratio difference); higher = more soluble in mitosis.
Series [3] concerns HeLa Kyoto. Put plainly: melting temperature (median over replicates), in situ; higher = more thermally stable.
Series [4] concerns HeLa Kyoto. Put plainly: solubility in G1/S (NP-40 vs SDS abundance) (log2 ratio); higher = more soluble. The following applies: cell cycle stage: G1/S.
The mark [5] stands for this setting: cell cycle stage: early G1 (4.5 h after nocodazole release).
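For melting temperature (median over replicates), in situ in this document: HeLa Kyoto cells synchronized by double thymidine or nocodazole block, proteins quantified by TMT10plex mass spectrometry, three independent biological replicates.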
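For solubility change mitosis vs G1/S (difference of NP-40 vs SDS log2 ratios) in this document: synchronized HeLa Kyoto cells (double thymidine block for G1/S, nocodazole release for mitosis), protein amounts in NP-40 versus SDS lysates quantified by mass spectrometry, three biological replicates.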
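For solubility in G1/S (NP-40 vs SDS abundance) in this document: HeLa Kyoto cells arrested at G1/S by double thymidine block, proteins quantified by TMT10plex mass spectrometry in mild NP-40 versus SDS extracts, three biological replicates.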
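For thermal stability score vs G1/S (z-score of summed log2 fold changes over temperatures) in this document: synchronized HeLa Kyoto cells, proteins quantified by TMT10plex mass spectrometry, three biological replicates, mitosis taken 0.5 h after nocodazole release, G1/S directly after double thymidine block.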

With “MATTATCTRFTDDYQLFEELGKGAFSVVRRCVKKTSTQEYAAKIINTKKLSARDHQKLEREARICRLLKHPNIVRLHDSISEEGFHYLVFDLVTGGELFEDIVAREYYSEADASHCIHQILESVNHIHQHDIVHRDLKPENLLLASKCKGAAVKLADFGLAIEVQGEQQAWFGFAGTPGYLSPEVLRKDPYGKPVDIWACGVILYILLVGYPPFWDEDQHKLYQQIKAGAYDFPSPEWDTVTPEAKNLINQMLTINPAKRITADQALKHPWVCQRSTVASMMHRQETVECLRKFNARRKLKGAILTTMLVSRNFSAAKSLLNKKSDGGVKKRKSSSSVHLMPQSNNKNSLVSPAQEPAPLQTAMEPQTTVVHNATDGIKGSTESCNTTTEDEDLKGRVPEGRSSRDRTAPSAGMQPQPSLCSSAMRKQEIIKITEQLIEAINNGDFEAYTKICDPGLTSFEPEALGNLVEGMDFHKFYFENLLSKNSKPIHTTILNPHVHVIGEDAACIAYIRLTQYIDGQGRPRTSQSEETRVWHRRDGKWLNVHYHCSGAPAAPLQ [CAMK2G]”, the thermal stability score in the series with HeLa Kyoto [1] (setting [5]) was -0.442; with HeLa Kyoto [1] (cell cycle stage: mitosis) it was -0.0382. The “solubility change mitosis (log2)” value in the series on HeLa Kyoto [2] came to 0.162. Besides, the melting temperature was 49.6 °C in the series with HeLa Kyoto [3] (cell cycle stage: G1/S) and 48.9 °C with HeLa Kyoto [3] (cell cycle stage: mitosis). In addition, the “solubility in G1/S (log2)” value in the series with HeLa Kyoto [4] is -0.382.

Consider “MKPRPAGFVDNKLKQRVIQYLTSNKCGKYVDIGVLASDLQRVYSIDYGRRKRNAFRIQVEKVFSIISSEKELKNLTELEDEHLAKRARQGEEDNEYTESYSDDDSSMEDYPDPQSANHMNSSLLSLYRKGNPDSVSNTPEMEQRETTSSTPRISSKTGSIPLKTPAKDSEGGWFIDKTPSVKKDSFFLDLSCEKSNPKKPITEIQDSKDSSLLESDMKRKGKLKNKGSKRKKEDLQEVDGEIEAVLQKKAKARGLEFQISNVKFEDVGGNDMTLKEVCKMLIHMRHPEVYHHLGVVPPRGVLLHGPPGCGKTLLAHAIAGELDLPILKVAAPEIVSGVSGESEQKLRELFEQAVSNAPCIIFIDEIDAITPKREVASKDMERRIVAQLLTCMDDLNNVAATARVLVIGATNRPDSLDPALRRAGRFDREICLGIPDEASRERILQTLCRKLRLPQAFDFCHLAHLTPGFVGADLMALCREAAMCAVNRVLMKLQEQQKKNPEMEDLPSKGVQEERLGTEPTSETQDELQRLLGLLRDQDPLSEEQMQGLCIELNDFIVALSSVQPSAKREGFVTVPNVTWADIGALEDIREELTMAILAPVRNPDQFKALGLVTPAGVLLAGPPGCGKTLLAKAVANESGLNFISVKGPELLNMYVGESERAVRQVFQRAKNSAPCVIFFDEVDALCPRRSDRETGASVRVVNQLLTEMDGLEARQQVFIMAATNRPDIIDPAILRPGRLDKTLFVGLPPPADRLAILKTITKNGTKPPLDADVNLEAIAGDLRCDCYTGADLSALVREASICALRQEMARQKSGNEKGELKVSHKHFEEAFKKVRSSISKKDQIMYERLQESLSR [NVL]”, for which the thermal stability score in the series with HeLa Kyoto [1] (setting [5]) was determined as 1.41; in the series with HeLa Kyoto [1] (cell cycle stage: mitosis), 1.19. Besides, the “solubility change mitosis (log2)” value in the series on HeLa Kyoto [2] turned out to be 0.882. Also, the values for the melting temperature with HeLa Kyoto [3] (cell cycle stage: G1/S) and in the series with HeLa Kyoto [3] (cell cycle stage: mitosis) were 53.8 °C and 52.7 °C, respectively. The “solubility in G1/S (log2)” value in the series on HeLa Kyoto [4] was -1.77.

Turning to “MACAAVMIPGLLRCSVGAIRIEAASLRLTLSTLRHLTLTSIMKSKRKTDHMERTASVLRREIVSAAKVCGAASESPSVKSLRLLVADQDFSFKAGQWVDFFIPGVSVVGGFSICSSPRLLEQERVIELAVKYTNHPPALWVHNTCTLDCEVAVRVGGEFFFDPQPADASRNLVLIAGGVGINPLLSILRHAADLLREQANKRNGYEIGTIKLFYSAKNTSELLFKKNILDLVNEFPEKIACSLHVTKQTTQINAELKPYITEGRITEKEIRDHISKETLFYICGPPPMTDFFSKQLENNHVPKEHICFEKWW [OXNAD1]”, the thermal stability score in the series on HeLa Kyoto [1] (setting [5]) is -0.605; in the series on HeLa Kyoto [1] (cell cycle stage: mitosis) it was -0.938. The “solubility change mitosis (log2)” value in the series with HeLa Kyoto [2] was -0.0113. Further, the melting temperature is 53.9 °C in the series on HeLa Kyoto [3] (cell cycle stage: G1/S) and 54.7 °C with HeLa Kyoto [3] (cell cycle stage: mitosis). Moreover, the “solubility in G1/S (log2)” value with HeLa Kyoto [4] is -0.0285.

With “MEAFQELRKPSARLECDHCSFRGTDYENVQIHMGTIHPEFCDEMDAGGLGKMIFYQKSAKLFHCHKCFFTSKMYSNVYYHITSKHASPDKWNDKPKNQLNKETDPVKSPPLPEHQKIPCNSAEPKSIPALSMETQKLGSVLSPESPKPTPLTPLEPQKPGSVVSPELQTPLPSPEPSKPASVSSPEPPKSVPVCESQKLAPVPSPEPQKPAPVSPESVKATLSNPKPQKQSHFPETLGPPSASSPESPVLAASPEPWGPSPAASPESRKSARTTSPEPRKPSPSESPEPWKPFPAVSPEPRRPAPAVSPGSWKPGPPGSPRPWKSNPSASSGPWKPAKPAPSVSPGPWKPIPSVSPGPWKPTPSVSSASWKSSSVSPSSWKSPPASPESWKSGPPELRKTAPTLSPEHWKAVPPVSPELRKPGPPLSPEIRSPAGSPELRKPSGSPDLWKLSPDQRKTSPASLDFPESQKSSRGGSPDLWKSSFFIEPQKPVFPETRKPGPSGPSESPKAASDIWKPVLSIDTEPRKPALFPEPAKTAPPASPEARKRALFPEPRKHALFPELPKSALFSESQKAVELGDELQIDAIDDQKCDILVQEELLASPKKLLEDTLFPSSKKLKKDNQESSDAELSSSEYIKTDLDAMDIKGQESSSDQEQVDVESIDFSKENKMDMTSPEQSRNVLQFTEEKEAFISEEEIAKYMKRGKGKYYCKICCCRAMKKGAVLHHLVNKHNVHSPYKCTICGKAFLLESLLKNHVAAHGQSLLKCPRCNFESNFPRGFKKHLTHCQSRHNEEANKKLMEALEPPLEEQQI [CHAMP1]”, the thermal stability score with HeLa Kyoto [1] (setting [5]) is 1.41; in the series with HeLa Kyoto [1] (cell cycle stage: mitosis) it was 3.68. In the series with HeLa Kyoto [2], the “solubility change mitosis (log2)” value worked out at 0.221. In addition, the figures for the melting temperature in the series with HeLa Kyoto [3] (cell cycle stage: G1/S) and in the series on HeLa Kyoto [3] (cell cycle stage: mitosis) were 48.8 °C and 50.3 °C, respectively. The “solubility in G1/S (log2)” value with HeLa Kyoto [4] was -0.327.

Turning to “MAAAQEADGARSAVVAAGGGSSGQVTSNGSIGRDPPAETQPQNPPAQPAPNAWQVIKGVLFRIFIIWAISSWFRRGPAPQDQAGPGGAPRVASRNLFPKDTLMNLHVYISEHEHFTDFNATSALFWEQHDLVYGDWTSGENSDGCYEHFAELDIPQSVQQNGSIYIHVYFTKSGFHPDPRQKALYRRLATVHMSRMINKYKRRRFQKTKNLLTGETEADPEMIKRAEDYGPVEVISHWHPNITINIVDDHTPWVKGSVPPPLDQYVKFDAVSGDYYPIIYFNDYWNLQKDYYPINESLASLPLRVSFCPLSLWRWQLYAAQSTKSPWNFLGDELYEQSDEEQDSVKVALLETNPYLLALTIIVSIVHSVFEFLAFKNDIQFWNSRQSLEGLSVRSVFFGVFQSFVVLLYILDNETNFVVQVSVFIGVLIDLWKITKVMDVRLDREHRVAGIFPRLSFKDKSTYIESSTKVYDDMAFRYLSWILFPLLGCYAVYSLLYLEHKGWYSWVLSMLYGFLLTFGFITMTPQLFINYKLKSVAHLPWRMLTYKALNTFIDDLFAFVIKMPVMYRIGCLRDDVVFFIYLYQRWIYRVDPTRVNEFGMSGEDPTAAAPVAEVPTAAGALTPTPAPTTTTATREEASTSLPTKPTQGASSASEPQEAPPKPAEDKKKD [CLPTM1]”, the thermal stability score came out at 3.21 in the series with HeLa Kyoto [1] (setting [5]) and 0.298 in the series on HeLa Kyoto [1] (cell cycle stage: mitosis). Also, in the series with HeLa Kyoto [2], the “solubility change mitosis (log2)” value was -0.142. Further, the melting temperature in the series on HeLa Kyoto [3] (cell cycle stage: G1/S) was 53.4 °C; in the series on HeLa Kyoto [3] (cell cycle stage: mitosis) it was 53.8 °C. The “solubility in G1/S (log2)” value with HeLa Kyoto [4] was -0.0403.
